{
  "source": "patent US20080064079",
  "key": {"[1]": {"target": "T1, Bz-Ala-Ala-Tyr-Arg-His-Ala-Gly", "T1 chain": "AAYRHAG"}, "[2]": {"target": "N-alpha-benzoylated peptides of SEQ ID NOs: 3-19"}},
  "data": [
    {"protein": "trypsin variant Tn K60E, E151H, N143H, D189K (protein) IVGGYTCQENSVPYQVSLNSGYHFCGGSLINDQWVVSAAHCYESRIQVRLGEHNINVLEGNEQFVNAAKIIKHPNFDRKTLNNDIMLIKLSSPVKLNARVATVALPSSCAPAGTQCLISGWGHTLSSGVNHPDLLQCLDAPLLPQADCEASYPGKITDNMVCVGFLEGGKKSCQGDSGGPVVCNGELQGIVSWGYGCALPDNPGVYTKVCNYVDWIQDTIAAN", "values": [
      {"measurement": "yield of the transamidation product with Arg-His-Ala-Lys(6-CF)-OH (HPLC)", "setting": "[1]", "result": "obtained in a yield of >99%"},
      {"measurement": "rate of reaction (initial rate of peptide consumption, HPLC)", "setting": "[2]", "result": "has a strong preference for a cleavage site comprising L, F or Y in position P1, R or K in position P1′ and His in position P2′"}
    ]}
  ]
}
